Earlier results on 16 molecules are cited in patent publication US20240247069A1, “FGFR3 BINDING MOLECULES AND METHODS OF USE THEREOF” (Regeneron Pharmaceuticals, Inc., priority 2023, published 2024).

Where a chain is given by its changes, count along the chain named. Names and notes keep the numbering of the source.

B1: KC18: anti-FGFR3 IIIb and IIIc antibody of WO 2022/040560 A1; VH SEQ ID NO:72, VL SEQ ID NO:73 (antibody, V domains shown)
VH: QVQLQQSGAELVRPGASVTLSCKASGDTFTDFEIHWVKQTPVHGLEWIGDIDPETGGTAYNQKFRGRAMLTADRSSSTAYMELRSLTSEDSAVYYCTRTYDGYPYAMDYWGQGTSVTVSS
VL: DIVMSQSPSSLAVSVGEKVTMSCKSSQSLLYSNNQKNYLAWYQQKPGQSPKLLIYWASTRESGVPDRFTGSGSGTDFTLTISSVKAEDLAVYYCQQYYSYRTFGGGTKLEIK
B2: KE63: anti-FGFR3 IIIb and IIIc antibody of WO 2022/040560 A1; VH SEQ ID NO:80, VL SEQ ID NO:81 (antibody, V domains shown)
VH: B1 VH with D27S, T30S, D50G, R65K, R67K, M69I, T99N, P104S, Y105Q, A106T
VL: NIMMTQSPSSLAVSAGEKVTMSCKSSQSVLYSSNQKNYLAWYQQKPGQSPKLLIYWASTRESGVPDRFTGSGSGTDFTLTISSVQAEDLAVYYCHQYLSSYTFGGGTKLEMK
B3: KE58: anti-FGFR3 IIIb and IIIc antibody of WO 2022/040560 A1; VH SEQ ID NO:78, VL SEQ ID NO:79 (antibody, V domains shown)
VH: EVQLQQSGPDLVKPGASVKISCKASGYTVTDYYMNWVKQSHGKSLEWIGDINPNNGVTTYNQKFKDKATLTVDKSSSTAYMELRSLTSEDSAVYYCAREEDFDGFDYWGQGTTLTVSS
VL: DIVMTQSHKFMSTSVGDRVSITCKASQDVSTGVAWYQQKPGQSPQLLIYWASTRHTGVPDRFTGSGSGTDYILTIRSVQAEDLALYYCQQHYSTPLTFGAGTKLELK
B4: MS-Pro-59: anti-FGFR3 Ig-like domain 3 antibody of WO 2002/102972 A2; VH SEQ ID NO:28, VL SEQ ID NO:29 (antibody, V domains shown)
VH: QVQLQQSGPGLVKPSQTLSLTCAISGDSVSSNSAAWNWIRQSPGRGLEWLGRTYYRSKWYNDYAVSVKSRITINDTSKNQFSLQLNSVTPEDTAVYYCARSYYPDFDYWGQGTVTVSS
VL: DIELTQPPSVSVAPGQTARISCSGDALGDKYASWYQQKPGQAPVLVIYDDSDRPSGIPERFSGSNSGNTATLTISGTQAEDEADYYCQSYDGPDLWVFGGGTKLTVLGQ
B5: 184.6.1.N54S: anti-FGFR3 Ig-like domain 3 antibody of WO 2010/111367 A1; VH SEQ ID NO:63, VL SEQ ID NO:64 (antibody, V domains shown)
VH: EVQLVESGGGLVQPGGSLRLSCAASGFTFTSTGISWVRQAPGKGLEWVGRIYPTSGSTNYADSVKGRFTISADTSKNTAYLQMNSLRAEDTAVYYCARARTYGIYDLYVDYTEYVMDYWGQGTLV
VL: DIQMTQSPSSLSASVGDRVTITCRASQDVDTSLAWYQQKPGKAPKLLIYSASFLYSGVPSRFSGSGSGTDFTLTISSLQPEDFATYYCQQSTGHPQTFGQGTKVEIKR
B6: 184.6.62: anti-FGFR3 Ig-like domain 3 antibody of WO 2010/111367 A1; VH SEQ ID NO:67, VL SEQ ID NO:68 (antibody, V domains shown)
VH: B5 VH with T30S, S31T, G49A, T54L, S55Y, N59H
VL: B5 VL with D30S, S32A, L33V, S91T, T92Y, G93T, H94T, P95S, Q96L
B7: 184.6.58: anti-FGFR3 Ig-like domain 3 antibody of WO 2010/111367 A1 (aka R3Mab); VH SEQ ID NO:65, VL SEQ ID NO:66; comparator REGN6331 (antibody, V domains shown)
VH: B5 VH with G49A, S55N
VL: B5 VL with T31I, S91G, T92A, H94N, Q96Y
notes: anti-FGFR3 Ig-like domain 3 antibody of WO 2010/111367 A1 (aka R3Mab); comparator REGN6331
B8: 184.6.1.NS D30E: anti-FGFR3 Ig-like domain 3 antibody of WO 2010/111367 A1; VH SEQ ID NO:63, VL SEQ ID NO:69 (antibody, V domains shown)
VH: B5 VH
VL: B5 VL with D30E
B9: KE94: anti-FGFR3 IIIb and IIIc antibody of WO 2022/040560 A1; VH SEQ ID NO:82, VL SEQ ID NO:83 (antibody, V domains shown)
VH: QVQLQQSGAELVRPGASVTLSCKASGSTFTDFEIHWVKQTPVHGLEWIGAIDPETGGTAYNQKFKGKAILTAVKSSSTAYMGLRSLTSEDSAVYYCTRNYDGYSRTMDYWGQGTSVTVSS
VL: B2 VL with T78S, T80S, A86T, K108R
B10: MS-Pro-11: anti-FGFR3 Ig-like domain 3 antibody of WO 2002/102972 A2; VH SEQ ID NO:30, VL SEQ ID NO:31 (antibody, V domains shown)
VH: QVQLVQSGAEVKKPGASVKVSCKASGYTFTSYYMHWVRQAPGQGLEWMGWINPNSGGTNYAQKFQGRVTMTRDTSISTAYMELSSLRSEDTAVYYCARYYGSSLYHYVFGGFIDYWGQGTLVTVSS
VL: DIALTQPASVSGSPGQSITISCTGTSSDVGGYNYVSYQQHPGKAPKLMIYDVSNRPSGVSNRFSGSKSGNTASLTISGLQAEDEADYYCQSHHFYEVFGGGTKLTVLGQ
B11: Hu15D8: anti-FGFR3 domain 3 antibody of WO 2010/002862 A2; VH SEQ ID NO:59, VL SEQ ID NO:60 (antibody, V domains shown)
VH: EVQLVQSGAEVKKPGESLKISCKGSGYSFTSYNMYWVRQMPGKGLEWMGYIDPYNGGTSYNQKFKGKATLTVDKSISTAYLQWSSLKASDTAMYYCAREGGNYEAWFAYWGQGTLVTVSS
VL: DIQLTQSPSSLSASVGDRVTITCSASSSVSYMYWFQQKPGKAPKPLIYLTSYLASGVPSRFSGSGSGTDFTLTISSLQPEDFATYYCQQWSSYPLTFGGGTKVEIK
B12: KE35: anti-FGFR3 IIIb and IIIc antibody of WO 2022/040560 A1; VH SEQ ID NO:74, VL SEQ ID NO:75 (antibody, V domains shown)
VH: EVQLQQSGPELVKPGASVKMSCKASGYTFTDYNMHWVKQSHGKSLEWIGYINPNNGGTRYNQKFKGKATLTVNKSSSTAYMELRSLTSEDSAVYYCARERDYDGAMDYWGQGTSVTVSS
VL: DIQMTQSPSSLSASLGGKVTITCKASQDINKFIAWYQHKPGKGPRLLIHYTSTLQPGIPSRFSGSGSGRDYSFSISNLEPEDIATYYCLQYDNLLWTFGGGTKLEIK
B13: KE42: anti-FGFR3 IIIb and IIIc antibody of WO 2022/040560 A1; VH SEQ ID NO:76, VL SEQ ID NO:77 (antibody, V domains shown)
VH: B12 VH with E46Q, R59N, K63N, G66D, S77T, A105S, Y108F
VL: B12 VL with Y87F
B14: FGA0002: anti-FGFR3 (S249C mutant) antibody of WO 2021/010326 A1; VH SEQ ID NO:84, VL SEQ ID NO:85 (antibody, V domains shown)
VH: QELVESGGGLVQPGGSLKLSCKASGIDFSSYGISWVRQAPGKGLEWIAYIVPGFGIRNYANSVKGRFTISSDNAQNTVFLQMTSLTASDTATYFCARVPQYASSSGYYLPFNLWGPGTLVTVSS
VL: ALVMTQTPSPVSAAVGGTVTINCQASEDIYYNLAWFQQKPGQPPKLLIYRASTLASGVPSRFSGSGSGTEFTLTISDVQCDDAATYYCLGVYTYISADGNAFGGGTEVVVK
B15: B-701: anti-FGFR3 antibody of WO 2016/134234 A1; VH SEQ ID NO:70, VL SEQ ID NO:71 (antibody, V domains shown)
VH: EVQLVESGGGLVQPGGSLRLSCAASGFTFTSTGISWVRQAPGKGLEWVGRIYPTSGSTNYADSVKGRFTISADTSKNTAYLQMNSLRAEDTAVYYCARTYGIYDLYVDYTEYVMDYWGQGTLV
VL: B5 VL with Q37K
B16: VH: SEQ ID NO: 7 of PCT Publication No: WO 2010/048026 A2: unnamed anti-FGFR3 Ig-like domain 2 antibody of WO 2010/048026 A2; VH SEQ ID NO:61, VL SEQ ID NO:62 (antibody, V domains shown)
VH: EVQLVQSGAEVKKPGASVKVSCKASGYMFTSYGISWVRQAPGQGLEWMGWVSTYNGDTNYAQKFQGRVTVTTDTSTSTAYMELRSLRSEDTAVYYCARVLGYYDSIDGYYYGMDVWGQGTTVTVSS
VL: QSVLTQPPSLSVAPGKTATFTCGGNNIGDKSVHWYRQKPGQAPVLVMYLDTERPSGIPERMSGSNFGNTATLTITRVEAEDEADYYCQVWDSGSDHVVFGGGTKLTVLG

The subject of the first data set is FGFR3. Particulars: Table T-3, exemplary FGFR3 D3 binding sequences from cited PCT publications.
For the molecule B1, the Activity entry is “Antagonistic”.
As to B2, the Activity result is “Antagonistic”.
For B3, the Activity result is given as “Antagonistic”.
Consider B4, for which the Activity result is “Antagonistic”.
For B5, the Activity entry is “Antagonistic”.
Turning to B6, the Activity entry was “Antagonistic”.
In the case of B7, the Activity result is “Antagonistic”.
Take B8: the Activity result is listed as “Antagonistic”.
Regarding B9, the Activity entry was “Antagonistic”.
For B10, the Activity entry is “Antagonistic”.
Turning to B11, the Activity result is “Antagonistic”.
B12: the Activity result is recorded as “Antagonistic”.
Take B13: the Activity entry is recorded as “Antagonistic”.

Staying with this data set, now noted: literature antibodies, sequences from cited PCT publications.
In the case of B1, the Activity result was “Antagonistic”.
For B2, the Activity entry was “Antagonistic”.
For B3, the Activity entry is on record as “Antagonistic”.
Regarding B14, the Activity entry is on record as “Antagonistic”.
On to B4, for which the Activity result is on record as “Antagonistic”.
As for B5, the Activity entry is “Antagonistic”.
Take B6: the Activity entry is listed as “Antagonistic”.
For B7, the Activity entry was “Antagonistic”.
For the molecule B8, the Activity entry is reported as “Antagonistic”.
Consider B15, for which the Activity result is on record as “Antagonistic”.
Regarding B9, the Activity entry was “Antagonistic”.
In the case of B16, the Activity result is given as “Antagonistic”.
With B10, the Activity entry was “Antagonistic”.
On to B11, for which the Activity entry was “Antagonistic”.
As to B12, the Activity result is on record as “Antagonistic”.
For the molecule B13, the Activity result was “Antagonistic”.
